Laboratory results published in PMC11171812.

Molecular target: recombinant Plasmodium knowlesi lactate dehydrogenase (Plasmodium knowlesi)
Test: native gel or EMSA; PAGE under native (non-reducing) conditions, 2 ug purified PkLDH in native sample buffer without SDS, 10% polyacrylamide gel without SDS, Coomassie Brilliant Blue R-250; single band between 135 and 180 kDa (monomer ~35.0 kDa on SDS-PAGE)

recombinant Plasmodium knowlesi lactate dehydrogenase (enzyme)
stoichiometry N: 4
